This assay has as its target T1, EBV gH/gL (Epstein-Barr virus, UniProt P03212+P03231).
T1 construct: expressed in transfected cells; host or cells: CHO cells
Put plainly: Flow cytometry of gH/gL-expressing CHO cells. It is filed as binding. An excerpt: FIGS. 10A-10B show the comparison of murine E1D1 (mE1D1) and humanized E1D1 (hE1D1). FIG. 10A: Sequence comparison of mE1D1 and hE1D1. Alignment of heavy chain (i) and light chain (ii) variable region amino acid sequences by the Clustal W. Murine E1D1 heavy chain and light chain AA sequences are represented by SEQ ID NOs: 183 and 184, respectively, and humanized E1D1 heavy chain and light chain AA sequences are represented by SEQ ID NOs: 185 and 186, respectively. Regions of identical sequence are represented by *. Regions of similarity are represented by :. FIG. 10B: Flow cytometric analysis of mE1D1 and hE1D1 gH/gL specificity. CHO wild type cells and gH/gL-expressing CHO cells were stained with mE1 D1 and hE1 D1, followed by secondary goat anti-mouse or anti-human conjugated to AF488. Unstained cells and cells stained with secondary goat anti-mouse or anti-human conjugated to AF488 alone, were used as negative controls.
Similar to Example 4, humanized E1D1 antibody was produced and its specificity was compared to mouse E1D1 by flow cytometric analysis (FIG. 10).
Flow cytometric analysis of gp350 and gH/gL specificity was performed. CHO wild type cells and gp350 or gH/gL-expressing CHO cells were stained with primary antibodies, followed by secondary goat anti-mouse or anti-human conjugated to AF488. […]
In general terms: In flow cytometry, cells or beads pass a laser one at a time.

B1: humanized E1D1: humanized anti-EBV gH/gL antibody E1D1; SEQ ID NOs: 185 and 186 (antibody, V domains shown)
VH: EVQLVESGGGLVQPGGSLRLSCAASGYTFTDYVISWVRQSPGKGLEWIGEIYPESGNTYYADSVKGRATLSADKSKNTAYLQMNSLRAEDTAIYFCAEGYAMDFWGQGTLVTVSS
VL: DIQMTQSPILLSASVGDRVTITCRSSQSLLHSNGNTYLHWYQQRTNGSPRLLIYKVSNRFSGVPSRFSGSGSGTDFTLTISSLQPEDEADYFCSQSIHVPRTFGAGTKVEIKR
As for B1, the “binding specificity to EBV gH/gL by flow cytometry” value is given as “did not affect its binding specificity to EBV gH/gL”.

The record behind these values is patent publication US12012446B2, “Epstein-Barr virus antibodies and uses thereof” (priority 2017, dated 2024).
